The test concerns the target human FcγRIIIA (176V isoform, R&D systems, 4325-FC) (human, UniProt P08637 17-208). Put plainly: BLI.

Sequence of human FcγRIIIA (176V isoform, R&D systems, 4325-FC) (P08637 17-208 F176V): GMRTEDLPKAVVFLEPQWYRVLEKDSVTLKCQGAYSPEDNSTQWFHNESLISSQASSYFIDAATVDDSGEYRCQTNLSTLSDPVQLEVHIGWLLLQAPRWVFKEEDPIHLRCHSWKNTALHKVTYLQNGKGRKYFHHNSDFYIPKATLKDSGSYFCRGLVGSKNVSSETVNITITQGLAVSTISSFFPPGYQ

B1: H01DE4 (antibody)
heavy: not shown
light: not shown
chain: DKTHTCPPCPAPELLGGPDVFLFPPKPKDTLMISRTPEVTCVVVDVSHEDPEVKFNWYVDGVEVHNAKTKPREEQYNSTYRVVSVLTVLHQDWLNGKEYKCKVSNKALPAPEEKTISKAKGQPREPQVCTLPPSREEMTKNQVSLSCAVKGFYPSDIAVEWESNGQPENNYKTTPPVLDSDGSFFLVSKLTVDKSRWQQGNVFSCSVMHEALHNHYTQKSLSLSPGK
Take B1: the Kd (commonly a measure of binding affinity in units of concentration) amounted to 0.11 nM.

Values taken from patent US20250236682A1 (published 2025).
